Read-outs that look alike come from different tables or passages of the source. Blank lines part the entries; values can stand above or below the binder they belong to.
How the values were obtained:
[1] = target: T1, Importin β (Kap95p), scImpβ-His6 (yeast, UniProt Q06142 1-861); assay: SEC
T1 sequence (looked up): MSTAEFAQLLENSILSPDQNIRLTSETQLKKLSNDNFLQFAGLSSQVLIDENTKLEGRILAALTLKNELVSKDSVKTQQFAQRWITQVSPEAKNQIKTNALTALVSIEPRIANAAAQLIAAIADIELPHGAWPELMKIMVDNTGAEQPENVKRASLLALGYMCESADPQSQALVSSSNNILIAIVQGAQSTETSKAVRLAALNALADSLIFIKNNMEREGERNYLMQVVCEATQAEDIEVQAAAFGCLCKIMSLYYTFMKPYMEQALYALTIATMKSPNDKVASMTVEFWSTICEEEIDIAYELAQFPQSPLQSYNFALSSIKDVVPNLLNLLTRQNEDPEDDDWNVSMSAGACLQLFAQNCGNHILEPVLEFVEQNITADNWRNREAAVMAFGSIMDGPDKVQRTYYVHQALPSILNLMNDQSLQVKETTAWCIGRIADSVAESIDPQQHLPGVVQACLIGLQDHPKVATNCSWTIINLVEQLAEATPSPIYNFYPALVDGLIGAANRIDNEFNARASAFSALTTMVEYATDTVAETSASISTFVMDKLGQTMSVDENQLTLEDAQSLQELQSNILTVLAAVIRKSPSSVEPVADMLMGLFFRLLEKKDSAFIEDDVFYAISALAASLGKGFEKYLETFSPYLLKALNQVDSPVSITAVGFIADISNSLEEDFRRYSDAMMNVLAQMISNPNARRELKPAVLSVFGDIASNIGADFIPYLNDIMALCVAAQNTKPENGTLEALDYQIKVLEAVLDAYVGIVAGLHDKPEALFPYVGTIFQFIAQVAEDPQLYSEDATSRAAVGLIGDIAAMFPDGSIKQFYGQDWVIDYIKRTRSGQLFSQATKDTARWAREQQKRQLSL

[2] = target: T1, Importin β (Kap95p), scImpβ-His6; assay: SEC; remark: listed apart in the source

binding result [1]: binds
B1: IBB-MBP-mEGFP (domain or fragment, Saccharomyces cerevisiae, UniProt Q02821 2-63, looked up)
chain: DNGTDSSTSKFVPEYRRTNFKNKGRFSADELRRRRDTQQVELRKAKRDEALAKRRNFIPPTD

binding result [2]: binds
B2: IBB-ZsGreen (domain or fragment, Saccharomyces cerevisiae, UniProt Q02821 2-63, looked up)
chain: B1 chain

Reference: publication PMC2728434 (The EMBO Journal, 2009)
